# Values of other authors, collected in US4636489A, “Modified protease inhibitors, process for their preparation, and pharmaceutical compositions prepared therefrom” (Plantorganwerk KG, priority 1983, dated 1987).
# B1: eglin C: protease inhibitor from leech extracts consisting of 70 amino acid radicals, described in DE-OS No. 28 08 396 (protein, UniProt P01051 1-70, looked up)
# Eglin C: TEFGSELKSFPEVVGKTVDQAREYFTLHYPQYDVYFLPEGSPVTLDLRYNRVRVFYNPGTNVVNHVPHVG
molecule,measurement,setting,value
B1,inhibition of chymotrypsin,chymotrypsin,strongly inhibit
same,inhibition of subtilisin,subtilisin,strongly inhibit
same,inhibition of PMN-granulocyte elastase,PMN-granulocyte elastase,strongly inhibit
same,inhibition of cathepsin G,cathepsin G,strongly inhibit
same,inhibition of trypsin,trypsin,only poor inhibitors
same,inhibition of pancreaselastase,pancreaselastase,only poor inhibitors
